Positions of bridges follow the written chain, without caps; N, C: chain ends. Non-standard residues stand in square brackets, D forms with d. Groups on a side chain read outwards from the residue. *: point of attachment. Ala(1H-tetrazol-5-yl) = N[C@@H](Cc1nnn[nH]1)C(=O)O; Dip = N[C@H](C(=O)O)C(c1ccccc1)c1ccccc1; His(τ-Me) = Cn1cnc(C[C@H](N)C(=O)O)c1; Palmitoyl = CCCCCCCCCCCCCCCC(=O)*; β3hF = N[C@H](CC(=O)O)Cc1ccccc1; NMeK = CN[C@@H](CCCCN)C(=O)O; Isovaleryl = CC(C)CC(=O)*; IDA = iminodiacetic acid; Ahx = NCCCCCC(=O)O
T1: human ferroportin (SLC40A1) fused in frame with GFP, stably expressed in HEK293 cells (human, UniProt Q9NP59 1-571)
T1 sequence (looked up): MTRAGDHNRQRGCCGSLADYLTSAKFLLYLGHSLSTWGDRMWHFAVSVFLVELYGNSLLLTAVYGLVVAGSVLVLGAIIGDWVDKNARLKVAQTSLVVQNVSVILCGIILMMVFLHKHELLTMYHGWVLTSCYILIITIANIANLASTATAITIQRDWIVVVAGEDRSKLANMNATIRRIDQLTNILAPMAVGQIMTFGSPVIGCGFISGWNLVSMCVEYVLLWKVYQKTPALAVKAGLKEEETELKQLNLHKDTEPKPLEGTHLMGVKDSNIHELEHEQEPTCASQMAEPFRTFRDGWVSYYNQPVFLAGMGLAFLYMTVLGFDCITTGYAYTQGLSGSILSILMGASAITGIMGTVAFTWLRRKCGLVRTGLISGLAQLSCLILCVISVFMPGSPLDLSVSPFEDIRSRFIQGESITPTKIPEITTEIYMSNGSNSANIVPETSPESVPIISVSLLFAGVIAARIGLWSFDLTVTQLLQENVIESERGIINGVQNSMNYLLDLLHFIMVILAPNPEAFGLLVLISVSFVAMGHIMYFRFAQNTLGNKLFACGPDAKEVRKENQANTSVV

B1: Isovaleric Acid-A-T-H-E-P-K-I-[Lys(Ahx_Palm)]-[bhPhe]-R-NH2; (E and K cyclized) (peptide)
peptide: Isovaleryl-ATHEPKIK([Ahx-Palmitoyl])[β3hF]R-NH2
modifications: lactam 4-6
SMILES: CCCCCCCCCCCCCCCC(=O)NCCCCCC(=O)NCCCC[C@H](NC(=O)[C@@H](NC(=O)[C@@H]1CCCCNC(=O)CC[C@H](NC(=O)[C@H](Cc2c[nH]cn2)NC(=O)[C@@H](NC(=O)[C@H](C)NC(=O)CC(C)C)[C@@H](C)O)C(=O)N2CCC[C@H]2C(=O)N1)[C@@H](C)CC)C(=O)N[C@H](CC(=O)N[C@@H](CCCNC(=N)N)C(N)=O)Cc1ccccc1
B2: Isovaleric Acid-L-T-[(1Me)His]-[Dpa]-P-A-I-[Lys(Ahx_Palm)]-[bhPhe]-NH2 (peptide)
peptide: Isovaleryl-LT[His(τ-Me)][Dip]PAIK([Ahx-Palmitoyl])[β3hF]-NH2
SMILES: CCCCCCCCCCCCCCCC(=O)NCCCCCC(=O)NCCCC[C@H](NC(=O)[C@@H](NC(=O)[C@H](C)NC(=O)[C@@H]1CCCN1C(=O)[C@@H](NC(=O)[C@H](Cc1cn(C)cn1)NC(=O)[C@@H](NC(=O)[C@H](CC(C)C)NC(=O)CC(C)C)[C@@H](C)O)C(c1ccccc1)c1ccccc1)[C@@H](C)CC)C(=O)N[C@H](CC(N)=O)Cc1ccccc1
B3: Isovaleric Acid-L-T-H-[Dpa]-P-A-I-[(N-Me)Lys]-[bhPhe]-[Lys(Ahx_Palm)]-NH2 (peptide)
peptide: Isovaleryl-LTH[Dip]PAI[NMeK][β3hF]K([Ahx-Palmitoyl])-NH2
SMILES: CCCCCCCCCCCCCCCC(=O)NCCCCCC(=O)NCCCC[C@H](NC(=O)C[C@H](Cc1ccccc1)NC(=O)[C@H](CCCCN)N(C)C(=O)[C@@H](NC(=O)[C@H](C)NC(=O)[C@@H]1CCCN1C(=O)[C@@H](NC(=O)[C@H](Cc1c[nH]cn1)NC(=O)[C@@H](NC(=O)[C@H](CC(C)C)NC(=O)CC(C)C)[C@@H](C)O)C(c1ccccc1)c1ccccc1)[C@@H](C)CC)C(N)=O
B4: Isovaleric Acid-A-T-H-K-P-E-I-[Lys(Ahx_Palm)]-[bhPhe]-R-NH2; (K and E cyclized) (peptide)
peptide: Isovaleryl-ATHKPEIK([Ahx-Palmitoyl])[β3hF]R-NH2
modifications: lactam 4-6
SMILES: CCCCCCCCCCCCCCCC(=O)NCCCCCC(=O)NCCCC[C@H](NC(=O)[C@@H](NC(=O)[C@@H]1CCC(=O)NCCCC[C@H](NC(=O)[C@H](Cc2c[nH]cn2)NC(=O)[C@@H](NC(=O)[C@H](C)NC(=O)CC(C)C)[C@@H](C)O)C(=O)N2CCC[C@H]2C(=O)N1)[C@@H](C)CC)C(=O)N[C@H](CC(=O)N[C@@H](CCCNC(=N)N)C(N)=O)Cc1ccccc1
B5: Isovaleric Acid-[Tet1]-T-[(1Me)His]-[Dpa]-P-A-I-[Lys(Ahx_Palm)]-[bhPhe]-NH2 (peptide)
peptide: Isovaleryl-[Ala(1H-tetrazol-5-yl)]T[His(τ-Me)][Dip]PAIK([Ahx-Palmitoyl])[β3hF]-NH2
SMILES: CCCCCCCCCCCCCCCC(=O)NCCCCCC(=O)NCCCC[C@H](NC(=O)[C@@H](NC(=O)[C@H](C)NC(=O)[C@@H]1CCCN1C(=O)[C@@H](NC(=O)[C@H](Cc1cn(C)cn1)NC(=O)[C@@H](NC(=O)[C@H](Cc1nnn[nH]1)NC(=O)CC(C)C)[C@@H](C)O)C(c1ccccc1)c1ccccc1)[C@@H](C)CC)C(=O)N[C@H](CC(N)=O)Cc1ccccc1
B6: Isovaleric Acid-K-T-H-[Dpa]-P-A-I-[Lys(Ahx_Palm)]-[bhPhe]-E-NH2; (K and E cyclized) (peptide)
peptide: Isovaleryl-KTH[Dip]PAIK([Ahx-Palmitoyl])[β3hF]E-NH2
modifications: lactam 1-10
SMILES: CCCCCCCCCCCCCCCC(=O)NCCCCCC(=O)NCCCC[C@@H]1NC(=O)[C@H]([C@@H](C)CC)NC(=O)[C@H](C)NC(=O)[C@@H]2CCCN2C(=O)[C@H](C(c2ccccc2)c2ccccc2)NC(=O)[C@H](Cc2c[nH]cn2)NC(=O)[C@H]([C@@H](C)O)NC(=O)[C@@H](NC(=O)CC(C)C)CCCCNC(=O)CC[C@@H](C(N)=O)NC(=O)C[C@H](Cc2ccccc2)NC1=O
B7: Isovaleric Acid-E-T-H-[Dpa]-P-A-I-[(D)Lys]-[bhPhe]-[Lys(Ahx_Palm)]-[(D)Lys]-NH2 (peptide)
peptide: Isovaleryl-ETH[Dip]PAI[dK][β3hF]K([Ahx-Palmitoyl])[dK]-NH2
SMILES: CCCCCCCCCCCCCCCC(=O)NCCCCCC(=O)NCCCC[C@H](NC(=O)C[C@H](Cc1ccccc1)NC(=O)[C@@H](CCCCN)NC(=O)[C@@H](NC(=O)[C@H](C)NC(=O)[C@@H]1CCCN1C(=O)[C@@H](NC(=O)[C@H](Cc1c[nH]cn1)NC(=O)[C@@H](NC(=O)[C@H](CCC(=O)O)NC(=O)CC(C)C)[C@@H](C)O)C(c1ccccc1)c1ccccc1)[C@@H](C)CC)C(=O)N[C@H](CCCCN)C(N)=O
B8: Isovaleric Acid-A-T-H-[Dpa]-P-E-I-[(D)Lys]-[bhPhe]-[Lys(Ahx_Palm)]-R-NH2; (E and (D)Lys cyclized) (peptide)
peptide: Isovaleryl-ATH[Dip]PEI[dK][β3hF]K([Ahx-Palmitoyl])R-NH2
modifications: lactam 6-8
SMILES: CCCCCCCCCCCCCCCC(=O)NCCCCCC(=O)NCCCC[C@H](NC(=O)C[C@H](Cc1ccccc1)NC(=O)[C@H]1CCCCNC(=O)CC[C@H](NC(=O)[C@@H]2CCCN2C(=O)[C@@H](NC(=O)[C@H](Cc2c[nH]cn2)NC(=O)[C@@H](NC(=O)[C@H](C)NC(=O)CC(C)C)[C@@H](C)O)C(c2ccccc2)c2ccccc2)C(=O)N[C@@H]([C@@H](C)CC)C(=O)N1)C(=O)N[C@@H](CCCNC(=N)N)C(N)=O
B9: Isovaleric Acid-A-T-H-[Dpa]-P-K-I-E-[bhPhe]-[Lys(Ahx_Palm)]-R-NH2; (K and E cyclized) (peptide)
peptide: Isovaleryl-ATH[Dip]PKIE[β3hF]K([Ahx-Palmitoyl])R-NH2
modifications: lactam 6-8
SMILES: CCCCCCCCCCCCCCCC(=O)NCCCCCC(=O)NCCCC[C@H](NC(=O)C[C@H](Cc1ccccc1)NC(=O)[C@@H]1CCC(=O)NCCCC[C@H](NC(=O)[C@@H]2CCCN2C(=O)[C@@H](NC(=O)[C@H](Cc2c[nH]cn2)NC(=O)[C@@H](NC(=O)[C@H](C)NC(=O)CC(C)C)[C@@H](C)O)C(c2ccccc2)c2ccccc2)C(=O)N[C@@H]([C@@H](C)CC)C(=O)N1)C(=O)N[C@@H](CCCNC(=N)N)C(N)=O

biological target: T1, human ferroportin (SLC40A1) fused in …; assay: cell-based or functional assay

| Binder | FPN EC50 |
| --- | --- |
| {IDA}-ETH[Dip]PIIK(Ac)[β3hF]-NH2 [[IDA]-E-T-H-[Dpa]-P-I-I-[Lys(Ac)]-[bhPhe]-NH2] | > 5000 nM |
| Pimelic_Acid-ETH[Dip]PIIK(Ac)[β3hF]-NH2 [[Pimelic_Acid]-E-T-H-[Dpa]-P-I-I-[Lys(Ac)]-[bhPhe]-NH2] | > 5000 nM |
| {Isophthalic Acid}-ETH[Dip]PIIK(Ac)[β3hF]-NH2 [[Isophthalic Acid]-E-T-H-[Dpa]-P-I-I-[Lys(Ac)]-[bhPhe]-NH2] | > 5000 nM |
| Isovaleryl-LT[His(τ-Me)][Dip]PAI[NMeK][β3hF]K([Ahx-Palmitoyl])-NH2 [Isovaleric Acid-L-T-[(1Me)His]-[Dpa]-P-A-I-[(N-Me)Lys)]-[bhPhe]-[Lys(Ahx_Palm)]-NH2] | 95.9 nM |
| Isovaleryl-ETH[Dip]PKIK([Ahx-Palmitoyl])[β3hF][dK]-NH2 (lactam 1-6 (inferred)) [Isovaleric Acid-E-T-H-[Dpa]-P-K-I-[Lys(Ahx_Palm)]-[bhPhe]-[(D)Lys]-NH2; (E and K cyclized)] | 122 nM |
| Succinic_Acid-ETH[Dip]PIIK(Ac)[β3hF]-NH2 [[Succinic_Acid]-E-T-H-[Dpa]-P-I-I-[Lys(Ac)]-[bhPhe]-NH2] | > 3000 nM |
| B1 | > 3000 nM |
| B2 | > 3000 nM |
| Glutaric_Acid-ETH[Dip]PIIK(Ac)[β3hF]-NH2 [[Glutaric_Acid]-E-T-H-[Dpa]-P-I-I-[Lys(Ac)]-[bhPhe]-NH2] | > 3000 nM |
| {(3-Trifluoromethyl)butyric acid}-ETH[Dip]PIIK(Ac)[β3hF]-NH2 [[(3-Trifluoromethyl)butyric acid]-E-T-H-[Dpa]-P-I-I-[Lys(Ac)]-[bhPhe]-NH2] | 2080 nM |
| B3 | 103 nM |
| B4 | > 3000 nM |
| {3,3,3‑Trifluoro propionic acid}-ETH[Dip]PIIK(Ac)[β3hF]-NH2 [[3,3,3-Trifluoro propionic acid]-E-T-H-[Dpa]-P-I-I-[Lys(Ac)]-[bhPhe]-NH2] | 5740 nM |
| Gallic_Acid-ETH[Dip]PIIK(Ac)[β3hF]-NH2 [[Gallic_Acid]-E-T-H-[Dpa]-P-I-I-[Lys(Ac)]-[bhPhe]-NH2] | > 3000 nM |
| B5 | 63.1 nM |
| B6 | 184 nM |
| B7 | 45.5 nM |
| B8 | 61.2 nM |
| B9 | 90.7 nM |

From US20240066131A1 (Protagonist Therapeutics, Inc., priority 2020, published 2024)
